{"source": "paper PMC7432558", "origin": "cited, not measured here", "target": "TEAD1 (Homo sapiens) (UniProt P28347)", "sequence (P28347 whole entry)": "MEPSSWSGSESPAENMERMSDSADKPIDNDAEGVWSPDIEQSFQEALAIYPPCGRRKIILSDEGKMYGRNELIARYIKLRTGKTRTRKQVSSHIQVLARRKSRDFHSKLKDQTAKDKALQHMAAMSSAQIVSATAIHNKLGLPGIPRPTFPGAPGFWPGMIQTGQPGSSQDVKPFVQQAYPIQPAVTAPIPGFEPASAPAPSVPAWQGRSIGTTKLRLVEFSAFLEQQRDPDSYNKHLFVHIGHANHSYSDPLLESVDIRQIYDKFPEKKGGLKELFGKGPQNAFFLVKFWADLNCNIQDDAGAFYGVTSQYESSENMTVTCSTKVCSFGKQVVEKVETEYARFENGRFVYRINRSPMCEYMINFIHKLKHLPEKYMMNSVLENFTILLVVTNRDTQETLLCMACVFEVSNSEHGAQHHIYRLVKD"}
{"substance": "YAP-derived cyclic peptide 81-100 (from UniProt P46937)", "values": [{"measurement": "Kd", "result": 0.015, "unit": "µM"}]}
